Assay [1] has as its target T1, NSBP1 (HMGN5), wild type, recombinant (mouse, UniProt Q9JL35 1-406).
T1 sequence (looked up): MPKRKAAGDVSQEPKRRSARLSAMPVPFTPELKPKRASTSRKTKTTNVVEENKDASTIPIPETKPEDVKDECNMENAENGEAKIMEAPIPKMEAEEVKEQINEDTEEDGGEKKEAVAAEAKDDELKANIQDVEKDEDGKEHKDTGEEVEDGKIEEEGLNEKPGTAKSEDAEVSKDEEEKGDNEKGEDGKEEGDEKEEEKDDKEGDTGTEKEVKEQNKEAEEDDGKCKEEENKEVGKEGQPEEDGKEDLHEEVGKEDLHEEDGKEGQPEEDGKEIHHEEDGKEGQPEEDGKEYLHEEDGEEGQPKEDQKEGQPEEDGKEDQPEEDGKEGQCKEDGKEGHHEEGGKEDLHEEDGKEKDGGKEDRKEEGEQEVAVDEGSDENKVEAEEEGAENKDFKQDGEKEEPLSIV
The assay can be described thus: cross-linking.

Assay [2] addresses T2, HMGB1 (from mouse thymus) (mouse, UniProt P63158 1-215).
T2 sequence (looked up): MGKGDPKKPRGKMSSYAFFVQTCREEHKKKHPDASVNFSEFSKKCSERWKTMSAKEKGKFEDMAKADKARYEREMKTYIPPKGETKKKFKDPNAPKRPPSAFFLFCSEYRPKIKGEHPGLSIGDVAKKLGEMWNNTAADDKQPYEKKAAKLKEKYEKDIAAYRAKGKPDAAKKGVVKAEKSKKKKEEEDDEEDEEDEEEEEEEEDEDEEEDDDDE
The assay can be described thus: cross-linking.

B1: linker histone H5 (native, from chicken erythrocytes) (natural protein, UniProt P02259 1-190, looked up)
chain: MTESLVLSPAPAKPKRVKASRRSASHPTYSEMIAAAIRAEKSRGGSSRQSIQKYIKSHYKVGHNADLQIKLSIRRLLAAGVLKQTKGVGASGSFRLAKSDKAKRSPGKKKKAVRRSTSPKKAARPRKARSPAKKPKATARKARKKSRASPKKAKKPKTVKAKSRKASKAKKVKRSKPRAKSGARKSPKKK
Turning to B1, the binding result in assay [1] and in assay [2] was “binds” each time.

(Values after publication PMC2757144 (Molecular cell, 2009).)
